The values below come from patent publication US20220031842A1 (JIANGSU HENGRUI MEDICINE, published 2022).

Like-named read-outs stand apart in the source and are kept apart here.

Test [1] concerns the target T1, Fusion protein of LAG-3 extracellular region and hIgG1 Fc (human).
T1 construct: Limits of the signal peptide are marked only by lost underlining; also called LAG-3-Fc; LAG-3-Fc fusion protein
Briefly: ELISA, LAG-3-Fc captured by anti-human Fc on plate (which fusion: inferred). From the text:
(§1) The binding ability of anti-LAG-3 antibody to human LAG-3 protein was detected by ELISA assay. LAG-3 fusion protein with Fc or mFc tag was immobilized into 96-well microtiter plate by binding to anti-Fc or anti-mFc antibody coated on the microtiter plate, the strength of the signal after the addition of the antibody was used to determine the binding activity of the antibody to LAG-3, the specific experimental method is as follows.
(§2) The goat anti-human Fc antibody (Jackson Immuno Research, Cat No. 109-005-008) or goat anti-mouse Fc antibody (Sigma, Cat No. M3534-1ML) was diluted to a concentration of 2 μg/ml with PBS buffer at pH 7.4 (Sigma, Cat No. P4417-100TAB), and added to a 96-well plate at a volume of 50 μl/well and then, the plate was incubated in the incubator at 37° C. for 2 hours. After discarding the liquid, the plates were blocked with 200 μl/well of blocking solution containing 5% skim milk (Bright Dairy, skim milk powder) in PBS, and incubated in the incubator at 37° C. for 2.5 hours or overnight at 4° C. (16-18 hours). After blocking, the blocking solution was discarded and the plate was washed 5 times with PBST buffer (PH7.4 PBS containing 0.05% tween-20). […]

Test [2] concerns the target T2, LAG-3 extracellular domain with a Flag tag (human, UniProt P18627 23-434).
T2 construct: also called LAG-3-Flag; LAG-3-Flag antigen
T2 sequence: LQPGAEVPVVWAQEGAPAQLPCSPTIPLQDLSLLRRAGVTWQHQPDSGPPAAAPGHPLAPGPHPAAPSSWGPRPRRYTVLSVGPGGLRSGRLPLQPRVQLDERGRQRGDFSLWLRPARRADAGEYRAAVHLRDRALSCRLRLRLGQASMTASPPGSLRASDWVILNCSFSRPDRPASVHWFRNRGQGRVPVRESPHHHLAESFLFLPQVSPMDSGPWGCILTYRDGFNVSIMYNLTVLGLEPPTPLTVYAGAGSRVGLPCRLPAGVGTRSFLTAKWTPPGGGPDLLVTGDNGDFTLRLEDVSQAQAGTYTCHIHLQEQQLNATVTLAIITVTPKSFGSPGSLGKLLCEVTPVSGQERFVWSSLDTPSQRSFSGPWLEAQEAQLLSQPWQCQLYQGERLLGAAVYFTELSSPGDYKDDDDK
Briefly: SPR (Biacore), antibody captured on anti-mouse capture chip, LAG-3-Flag in flow. The source says: 1. […] Then, the LAG-3-Flag antigen (produced in-house, SEQ ID NO:1) was flowed through the surface of the biochip, and the reaction signal was detected in real time by using a Biacore instrument to obtain the binding and dissociation curves, the value of affinity was obtained by fitting, see above table 2. After each cycle of dissociation was finished in the experiment, the biochip was washed and regenerated with a regeneration solution provided in the mouse anti-capture kit.
A general note: In SPR one partner is held on a chip, and binding of the other changes the refractive index at the surface.

For test [3], the target named is T1, Fusion protein of LAG-3 extracellular …. Briefly: ELISA, LAG-3-Fc captured by anti-human Fc on plate (which fusion: inferred).
Excerpt: as §1, §2
This is another data set of the same source. Background: ELISA stands for enzyme-linked immunosorbent assay.

Test [4] has the same target. Briefly: competition: biotin-LAG-3-Fc binding to fixed Daudi cells, antibody titrated. The procedure: Daudi cells (human leukemia cells, purchased from the cell bank in Chinese Academy of Sciences) were seeded in 96-well plate with a density of 3×10⁵/well. After centrifugation at 1000 rpm, the supernatant was discarded and then the plate was fixed with 4% PFA for 30 min at room temperature. The plate was washed 4 times with PBS after discarding the fixed solution, and the plate was blocked with 200 μl/well of blocking solution containing 5% skim milk (Bright Dairy, skim milk powder) diluted in PBS, and incubated at 37° C. for 2.5 hours. After blocking, the blocking solution was discarded and the plate was washed 5 times with PBST buffer (pH7.4 PBS containing 0.05% tween-20), added with 50 μl/well mixture of biotin-labeled (Biotin labeling kit, Dojindo Chemical, Cat No. LK03) LAG-3-Fc fusion protein (produced in-house, SEQ ID NO: 3) and gradient concentrations of the antibody to be tested, wherein the biotin-labeled LAG-3-Fc fusion protein has been diluted with sample diluent (PH7.4 PBS containing 1% BSA) at a final concentration of 0.4 μg/ml, and pre-mixed for an hour, then the plate was incubated at 37° C. for 1 h. […] The OD value at a wavelength of 450 nm was read on NOVOStar microplate reader, and then the activity of the LAG-3 antibody in blocking the binding of the antigen to Daudi cells was calculated.

Test [5] concerns the target T2, LAG-3 extracellular domain with a Flag …. Put plainly: SPR (Biacore), antibody captured on anti-human capture chip, LAG-3-Flag in flow. The source says:
2. […] Then, the LAG-3-Flag antigen (produced in-house, SEQ ID NO:1) was flowed through the surface of the biochip, and the reaction signal was detected real time using a Biacore instrument to obtain the binding and dissociation curves, the value of affinity was obtained by fitting, see table 10 below. After each cycle of dissociation was finished in the experiment, the biochip was washed and regenerated with a regeneration solution provided in the human anti-capture kit.

In test [6] the target is T1, Fusion protein of LAG-3 extracellular …. Briefly: competition: biotin-LAG-3-Fc binding to fixed Daudi cells, antibody titrated. Summed up: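 Daudi cells were PFA-fixed and blocked, then given 0.4 μg/ml (final) biotin-LAG-3-Fc premixed for 1 h with titrated antibody, and incubated 1 h at 37° C. Bound fusion protein was detected with HRP-streptavidin and TMB, read at OD450. Antibody blocking of antigen binding to the cells was calculated from the signal.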
Target sequence in this assay (chain, as listed by the source limits assumed): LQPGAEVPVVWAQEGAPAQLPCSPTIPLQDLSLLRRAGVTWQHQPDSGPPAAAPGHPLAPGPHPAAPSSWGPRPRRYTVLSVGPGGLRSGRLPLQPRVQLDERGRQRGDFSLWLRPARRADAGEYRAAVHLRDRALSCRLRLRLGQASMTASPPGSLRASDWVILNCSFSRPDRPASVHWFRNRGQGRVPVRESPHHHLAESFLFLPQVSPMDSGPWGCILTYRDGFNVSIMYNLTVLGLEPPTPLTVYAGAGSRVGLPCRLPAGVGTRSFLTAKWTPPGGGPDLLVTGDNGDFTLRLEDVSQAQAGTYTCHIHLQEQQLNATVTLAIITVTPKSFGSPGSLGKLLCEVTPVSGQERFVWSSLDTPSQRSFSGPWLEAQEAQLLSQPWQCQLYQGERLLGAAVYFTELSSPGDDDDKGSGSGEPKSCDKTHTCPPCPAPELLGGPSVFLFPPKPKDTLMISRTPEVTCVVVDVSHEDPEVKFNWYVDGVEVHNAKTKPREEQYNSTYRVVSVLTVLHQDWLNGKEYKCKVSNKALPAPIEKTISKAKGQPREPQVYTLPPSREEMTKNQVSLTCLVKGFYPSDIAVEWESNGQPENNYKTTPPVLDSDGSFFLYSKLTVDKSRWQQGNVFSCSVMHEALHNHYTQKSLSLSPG
The source holds these as a separate data set.

B1: mAb229 (antibody, V domains shown)
VH: QIQLVQSGPELKKPGETVKISCKASGYTFTTSGMSWVKQAPGKGLKWMGWINTYSGVPTYADDFKGRFAFSLETSASTAYLQINNLKNEDTATYFCARDNYDARDVYYYAMDYWGQGTSVTVSS
VL: DIQMTQSPASLSVSVGETVTITCRASENIYSNLAWYQQKQGKSPQLLVYAATNLADGVPSRFSGSGSGTQYSLKINSLQSEDFGSYYCQHFWITPWTFGGGTKLEIK
notes: Murine hybridoma antibody; also called LAG-3 antibody mAb229; hybridoma clone mAb229
What is called EC50 is the concentration giving half of the maximal effect. Lower therefore signals higher potency in that assay. In general, Kd refers to the concentration at which binding is half-saturated. Read a high Kd as lower affinity. In general, IC50 refers to the midpoint of a concentration-inhibition curve. Higher therefore signals a need for much substance. For the molecule B1, the concentration for a half-maximal effect (EC50) in test [1] and in test [3] was 129 pM in each case. In addition, the dissociation constant (Kd) in test [2] worked out at 426 pM; in test [5], 17.2 pM. Further, the 50% inhibitory concentration (IC50) in test [4] and in test [6] was 1330 pM throughout.

B2: mAb303 (antibody, V domains shown)
VH: EVQLQQSGPVLVKPGASVKMSCKASGYTLTDYYMNWVKQSHGKSLEWIGVINPYNGDTAYNQKFKGKATLTVDKSSNTAYMEINSLTSEDSAVYYCTRDDGYYDYYFDVWGTGTTVTVSS
VL: DIQMTQSPSSLSASLGERVILTCRASQDIGSRLNWLQQGPDGTFKRLIYATSTLDSGVPKRFSGSRSGSDFSLTISSLESEDFVDYYCLQLASSPPTFGGGTKLEIK
notes: Murine hybridoma antibody; also called LAG-3 antibody mAb303; hybridoma clone mAb303
In the case of B2, the concentration giving a half-maximal response (EC50) in test [1] and in test [3] was 172 pM in each case. The Kd in test [2] is 470 pM; in test [5], 74.9 pM. For the same molecule, the 50% inhibitory concentration (IC50) in test [4] and in test [6] was 596 pM each time.
